In US9951373B2, “Oplophorus-derived luciferases, novel coelenterazine substrates, and methods of use” (Promega Corporation, priority 2010, dated 2018):

Legend:
HEK293 cells = test: Luminescence of luciferases in lysed HEK293 cells (codon optimization); format: cell-based, human; conditions: normalized
Experimental: Codon optimized versions of IV (“IV opt” (SEQ ID NO: 22) and “IV optB” (SEQ ID NO: 23)) and 9B8 (“9B8 opt” (SEQ ID NO: 24) and “9B8 optB” (SEQ ID NO: 25)) were generated and cloned into pF4Ag by methods known in the art. HEK293 cells were plated in 96-well plates at 15,000 cells/well and grown overnight at 37° C. The following day, the cells were transiently transfected in 6 well replicates using TRANSIT®-LT1 Transfection Reagent (Mirus Bio) with 100 ng of plasmid DNA encoding the codon optimized versions in pF4Ag and grown overnight at 37° C. HEK293 cells were also transfected with either pGL4.13 (Luc2/SV40) (Paguio et al., “pGL4 Vectors: A New Generation of Luciferase Reporter Vectors” Promega Notes, 89:7-10 (2005)) or pGL4.73 (hRL/SV40) (Id.) to normalize for differences in transfection efficiency. Ten ng/transfection or 10% of the total DNA transfected was used.
The OgLuc variants had higher luminescence compared to Luc2 and hRL.

[1] = Thermal stability of OgLuc variants at 60° C.; format: physicochemical; conditions: luminescence at start of incubation (t=0), PBI-3939
Experimental: Aliquots were removed at different time-points and placed on dry ice to freeze the samples. […] Luminescence was measured on a GLOMAX® luminometer (Promega Corp.).
The thermal stability of the variants at 60° C. was examined as described above, except the assay buffer contained 100 mM MES pH 6.0 instead of HEPES.

[2] = Brightness of purified OgLuc variant compared to firefly luciferase; format: biochemical
Experimental: The 9B8 OgLuc variant was overexpressed and purified as described in Example 33. Reactions between diluted enzyme and substrate were performed using the following 2× buffer/assay reagent: 100 mM MES pH 6.0, 1 mM CDTA, 150 mM KCl, 35 mM thiourea, 2 mM DTT, 0.25% TERGITOL® NP-9 (v/v), 0.025% MAZU® DF 204, 10 mg/mL 2-hydroxy-β-cyclodextrin, and 20 μM PBI-3939. The final assay concentrations of purified enzyme and substrate were 0.5 pM and 10 μM, respectively. In parallel, reactions between diluted purified firefly luciferase (i.e., QUANTILUM® Recombinant Luciferase (Promega Corp.)) and luciferin were analyzed. The assay buffer/reagent for the firefly luciferase reaction was BRIGHT-GLO™, and the final assay concentrations were 0.5 pM enzyme and 500 μM luciferin. As the buffers/reagents for each reaction were known to provide “glow” kinetics, a 15 min time point was used to collect luminescence data.

[3] = tested on: cAMP response element (CRE); test: Transcriptional reporter, forward transfection, CRE in HEK293 cells; format: cell-based, human; conditions: 3 h; for baseline: 10 nM FSK
Experimental: HEK293 cells were plated at 15,000 cells/well in six 96-well tissue culture plates. Cells were grown in 100 μL of DMEM+10% FBS+1× non-essential amino acids (NEAA) and incubated overnight at 37° C. The cells were transiently transfected with either 10 ng or 100 ng plasmid DNA/well of pGL4.29 9B8 opt, pGL4.29 9B8 opt-P, or pGL4.29. Plasmid DNA was mixed with 850 μL of OPTI-MEMO (Invitrogen) and 32.4 μL of FUGENE® HD transfection reagent (Promega Corp.) and incubated at room temperature for 10 min. Eight μL of the transfection/reporter DNA mixture was added to the appropriate wells (2 constructs/plate). Cells were incubated for 4 hrs at 37° C. The medium was replaced with OPTI-MEM®+0.5% dialyzed FBS+1×NEAA+1× sodium pyruvate+1× Penn-Strep and incubated overnight at 37° C.
A lytic reagent containing 100 mM MES pH 6.1, 1 mM CDTA, 150 mM KCl, 35 mM thiourea, 2 mM DTT, 0.25% TERGITOLO NP-9 (v/v), 0.025% MAZUO DF 204, and 20 μM PBI-3939 was added to the cells containing pGL4.29 9B8 opt or pGL4.29 9B8 opt-P and allowed to incubated for 10 min at room temperature (100 μL lytic reagent added to 100 μL cells). ONE-GLO™ assay reagent (Promega Corp.) was added to cells containing pGL4.29 and used according to the manufacturer's protocol (100 μL reagent added to 100 μL cells). Luminescence was measured on a GLOMAX® Luminometer.

[4] = tested on: antioxidant response element (ARE); test: Transcriptional reporter, reverse transfection, ARE in HEK293 cells; format: cell-based, human; conditions: 100 ng DNA, 24 h
Experimental: HEK293 cells were trypsinized (T75 flask, 3 mL trypsin) and resuspended in […] (approximately 8.9×10^6 total cells) in medium containing DMEM+10% FBS+1×NEAA. Each transcriptional reporter was prepared for transfection by mixing 1.2 mL OPTI-MEM®, 12 μL transcription reporter DNA (100 ng) and 36 μL FUGENE® HD transfection reagent together and incubated at room temperature for 35 min. Following incubation, 624 μL of the transfection/reporter DNA mixture was added to 12 mL of cell suspension and mixed by inversion. After mixing, 100 μL of the cell/DNA mixture was added to wells of a 96-well plate (2 constructs/plate). The cells were incubated at 37° C. for 22 hrs. Tert-butylhydroquinone (a Nrf2 stabilizer; tBHQ; 1 μM (“baseline”) or 20 μM) or sulphoraphane, (an organosulfer antioxidant known to activate Nrf2; 1 μM (“baseline”) or 20 μM) in OPTI-MEM® was added to each well and incubated at 37° C. for 24 hrs. Cells were lysed with 100 μL lytic reagent as described above for the forward transfection. Luminescence was measured on a GLOMAX® Luminometer.

CRE [5] = test: Transcriptional reporter, bulk transfection, CRE in HEK293 cells; format: cell-based, human; conditions: HEK293, 10 nM FSK, 4 h
Experimental: (§1) The transcriptional reporter containing HRE and 9B8 opt-P was used in the bulk transfection of HeLa cells
(§2) HEK293, NIH3T3, or HeLa cells were plated to a single well of a 6-well tissue culture plate the day before transfection at a density of 4.5×10^5 cells/well in 3 mL complete medium (DMEM+10% FBS+1×NEAA+1× sodium pyruvate) for HEK293 cells, 3×10^5 cells/well in 3 mL complete medium (DMEM+10% fetal calf serum (FCS)+1×NEAA+1× sodium pyruvate) for NIH3T3 cells, or 9.9×10^5 cells/well in 3 mL complete medium (DMEM+10% FBS+1×NEAA) for HeLa cells. Cells were grown overnight at 37° C.
(§3) 3,300 ng of reporter plasmid DNA in 155 μL OPTI-MEM® was mixed with 9.9 μL FUGENE® HD transfection reagent, vortexed briefly, and incubated at room temperature for 10 min. The CRE transcriptional reporters were used to transfect HEK293 and NIH3T3 cells. The HRE transcriptional reporters were used to transfect HeLa cells. The reporter mixture was added to cells and mixed by gentle rocking followed by incubation at 37° C. for 6 hrs (HEK293 and NIH3T3) or 3 hrs (HeLa). […]
(§4) FSK (CRE stimulator) or 17-AAG (HRE stimulator; 17-Allylamino-demethoxy geldanamycin) in OPTI-MEM® was added to the cells (10 nM or 10 μM final concentration for FSK; 1 nM or 1 μM final concentration for 17-AAG) and incubated at 37° C. for 4 hrs (FSK) or 6 hrs (17-AAG). […] Luminescence was measured on a GLOMAX® Luminometer.

CRE [6] = test: Transcriptional reporter, bulk transfection, CRE in NIH3T3 cells; format: cell-based; conditions: NIH3T3, 10 nM FSK, 4 h
Experimental: as §1, §2, §3, §4

[7] = tested on: cAMP-response element (CRE); test: cAMP transcriptional reporter in HEK293 cells; conditions: for fold-induction: FSK 5 hrs

Row | Molecule | fold higher luminescence than hRL (HEK293 cells) | RLU [1] | fold brighter than QUANTILUM Recombinant Luciferase with BRIGHT-GLO [2] | luminescence ([2]; 0.5 pM purified enzyme, 15 min, 10 μM PBI-3939 or BRIGHT-GLO with 500 μM luciferin) | baseline ([3]; 10 ng DNA) | RLU (10 µM FSK) ([3]; 10 ng DNA) | Response ([3]; 10 ng DNA) | baseline ([3]; 100 ng DNA) | RLU (10 µM FSK) ([3]; 100 ng DNA) | Response ([3]; 100 ng DNA) | RLU (20 μM sulphoraphane) [4] | RLU (20 μM tBHQ) [4] | baseline ([4]; 1 μM sulphoraphane) | baseline ([4]; 1 μM tBHQ) | baseline (CRE [5]) | baseline (CRE [6]) | fold-induction ([7]; 30 ng of DNA for transfection) | fold-induction ([7]; 100 ng of DNA for transfection) | induced luminescence higher than Luc2 transcriptional reporter ([7]; FSK induced) | induced luminescence higher than induced Renilla transcriptional reporter ([7]; FSK induced)
1 | Luc2: a firefly luciferase (SEQ ID NOs: 28 and 29) (protein, listed as Photinus pyralis) MEDAKNIKKGPAPFYPLEDGTAGEQLHKAMKRYALVPGTIAFTDAHIEVDITYAEYFEMSVRLAEAMKRYGLNTNHRIVVCSENSLQFFMPVLGALFIGVAVAPANDIYNERELLNSMGISQPTVVFVSKKGLQKILNVQKKLPIIQKIIIMDSKTDYQGFQSMYTFVTSHLPPGFNEYDFVPESFDRDKTIALIMNSSGSTGLPKGVALPHRTACVRFSHARDPIFGNQIIPDTAILSVVPFHHGFGMFTTLGYLICGFRVVLMYRFEEELFLRSLQDYKIQSALLVPTLFSFFAKSTLIDKYDLSNLHEIASGGAPLSKEVGEAVAKRFHLPGIRQGYGLTETTSAILITPEGDDKPGAVGKVVPFFEAKVVDLDTGKTLGVNQRGELCVRGPMIMSGYVNNPEATNALIDKDGWLHSGDIAYWDEDEHFFIVDRLKSLIKYKGYQVAPAELESILLQHPNIFDAGVAGLPDDDAGELPAAVVVLEHGKTMTEKEIVDYVASQVTTAKKLRGGVVFVDEVPKGLTGKLDARKIREILIKAKKGGKIAV | approximately 14 fold | – | – | – | – | – | – | – | – | – | – | – | – | – | – | – | – | – | – | –
2 | 9B8 opt: codon optimized version of the 9B8 variant (SEQ ID NO: 24) (protein) MVFTLEDFVGDWRQTAGYNLDQVLEQGGLSSLFQKLGVSVTPIQKIVLSGENGLKIDIHVIIPYEGLSGYQMGQIEKIFKVVYPVDDHHFKVILHYGTLVIDGVTPNMIDYFGRPYEGIAVFDGKKITVTGTLWNGNKIIDERLINPDGSLLFRVTINGVTGWRLCERILA | – | 23,283,252,000 RLU | approximately 8 fold | 19,200 RLU | 192810 RLU | 12,926,465 RLU | 67 | 3,078,418 RLU | 104,687,723 RLU | 34 | 89,600,000 RLU | 120,000,000 RLU | 15,600,000 RLU | 15,100,000 RLU | 39,700,000 RLU | 9,187,000 RLU | 360 | 109 | approximately 1.5 logs | approximately 2.5 logs
